The values below are quoted from earlier work in PMC4339652.

Values joined by “and” are separate entries in the source; they are usually repeats but may differ in a detail not shown here. Equal values may be shown once. Read-outs that look alike come from different tables or passages of the source.

The target in data set [1] is TolA TolAIII (Escherichia coli) (UniProt P19934). Description: ITC.
For data set [2] the target is unchanged. Description: SPR.
For data set [3] the target is unchanged. Description: stopped flow fluorescence.
In data set [4] the target is Colicin N T domain (Escherichia coli) (UniProt P08083).
The target of data set [5] is G3p N1 (Filamentous phage) (UniProt O80297).
Data set [6] has as its target TolB (Escherichia coli) (UniProt P0A855). Description: ITC. In general terms: In ITC the heat of successive injections is recorded.
Data set [7] shares this target. Nature of the data set: ITC. The source holds these as a separate data set.
In data set [8] the target is Colicin N 40-90 (Escherichia coli) (UniProt P08083). Nature of the data set: SPR. (In general: SPR reads the build-up and loss of mass on a sensor chip optically.)
Data set [9] addresses TolA TolAII-III (Escherichia coli) (UniProt P19934). Description: SPR.

TolA TolAIII, sequence (P19934 311-421): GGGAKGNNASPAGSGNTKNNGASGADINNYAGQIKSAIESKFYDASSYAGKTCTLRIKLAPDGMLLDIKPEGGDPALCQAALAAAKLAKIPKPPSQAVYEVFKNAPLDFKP
TolA TolAIII (Escherichia coli), sequence (P19934 311-421): as above
Colicin N T domain (1-90), sequence (P08083 1-90): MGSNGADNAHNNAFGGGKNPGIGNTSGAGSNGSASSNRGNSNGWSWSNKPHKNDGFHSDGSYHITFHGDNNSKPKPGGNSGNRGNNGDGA
Colicin N 40-90, sequence (P08083 40-90): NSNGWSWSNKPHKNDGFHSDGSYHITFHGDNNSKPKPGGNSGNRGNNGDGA
Colicin N 40-90 (Escherichia coli), sequence (P08083 40-90): as above
TolB (Escherichia coli), sequence (P0A855 22-430): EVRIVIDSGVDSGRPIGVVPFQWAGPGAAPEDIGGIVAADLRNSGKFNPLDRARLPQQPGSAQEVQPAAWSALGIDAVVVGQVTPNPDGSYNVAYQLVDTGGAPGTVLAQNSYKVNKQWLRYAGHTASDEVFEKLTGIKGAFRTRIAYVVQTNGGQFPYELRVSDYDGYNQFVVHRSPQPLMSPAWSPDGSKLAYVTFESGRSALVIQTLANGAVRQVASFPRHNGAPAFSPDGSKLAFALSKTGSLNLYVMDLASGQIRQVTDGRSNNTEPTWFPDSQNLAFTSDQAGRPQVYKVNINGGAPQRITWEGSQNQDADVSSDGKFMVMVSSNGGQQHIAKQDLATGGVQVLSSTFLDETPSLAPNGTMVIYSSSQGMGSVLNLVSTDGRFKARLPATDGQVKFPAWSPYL
TolA TolAII-III, sequence (P19934 48-421): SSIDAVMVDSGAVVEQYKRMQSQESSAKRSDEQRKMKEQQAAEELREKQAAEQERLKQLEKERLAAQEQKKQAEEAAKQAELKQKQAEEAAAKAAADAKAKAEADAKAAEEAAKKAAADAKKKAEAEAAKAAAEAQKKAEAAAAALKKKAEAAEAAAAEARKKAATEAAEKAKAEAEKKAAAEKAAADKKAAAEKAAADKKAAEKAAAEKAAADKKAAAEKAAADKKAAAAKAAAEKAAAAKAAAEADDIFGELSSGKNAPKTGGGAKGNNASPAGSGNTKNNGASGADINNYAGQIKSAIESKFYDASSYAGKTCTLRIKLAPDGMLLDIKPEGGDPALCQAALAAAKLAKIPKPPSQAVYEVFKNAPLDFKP
Colicin N T domain (Escherichia coli), sequence (P08083 1-90): as the sequence (P08083 1-90) above
G3p N1 (Filamentous phage), sequence (O80297 18-79): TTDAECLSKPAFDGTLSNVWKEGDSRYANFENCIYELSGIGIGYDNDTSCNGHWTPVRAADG
TolA TolA, sequence (P19934 whole entry): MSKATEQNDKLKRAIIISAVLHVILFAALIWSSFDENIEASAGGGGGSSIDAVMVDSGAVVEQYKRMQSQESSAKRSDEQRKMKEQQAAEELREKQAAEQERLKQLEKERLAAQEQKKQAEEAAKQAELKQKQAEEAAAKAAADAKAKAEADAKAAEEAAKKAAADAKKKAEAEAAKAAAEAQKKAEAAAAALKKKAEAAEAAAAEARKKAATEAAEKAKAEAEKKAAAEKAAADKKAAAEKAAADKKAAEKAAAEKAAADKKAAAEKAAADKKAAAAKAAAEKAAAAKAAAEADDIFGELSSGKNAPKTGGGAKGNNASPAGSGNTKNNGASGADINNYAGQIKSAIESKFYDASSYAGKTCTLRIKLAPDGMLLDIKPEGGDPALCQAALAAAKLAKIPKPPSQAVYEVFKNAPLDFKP
TolA TolAII-III (Escherichia coli), sequence (P19934 48-421): as the sequence (P19934 48-421) above
G3p N1 domain, sequence (P69168 16-88): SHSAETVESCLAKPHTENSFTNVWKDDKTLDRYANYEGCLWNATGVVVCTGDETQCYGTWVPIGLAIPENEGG

As for “Colicin N T domain (1-90) (from UniProt P08083)”, the dissociation constant (Kd) in [1] is 1000 nM; in [2] it was 1250 nM; in data set [3] it was 2300 nM.
For TolA TolAIII (from UniProt P19934), the Kd in [4] was 1000 nM; in [5] it was 1000 nM; in the data set with TolB (Escherichia coli) [6], 13000 nM; in the data set with TolB (Escherichia coli) [7], 40000 nM.
For the substance G3p N1 domain (from UniProt P69168), the Kd in data set [2] is 1000 nM.
For TolA TolA (from UniProt P19934), in the data set with TolB (Escherichia coli) [6], the Kd is 40000 nM.
Consider TolA TolAII-III (from UniProt P19934), for which, in [8], the Kd is 190 nM and 940 nM and 850 nM.
With Colicin N 40-90 (from UniProt P08083), the Kd in data set [9] was 940 nM; in data set [2], 850 nM and 190 nM.

A word on the Kd: it is the concentration at which binding is half-saturated.
